Experimental data reported in patent US20060008801A1 (EFFECTOR CELL INSTITUTE, published 2006).

Molecular target: T1, myc-p53 (isotope-labeled myc-fused recombinant p53, made in vitro from pAS2-1-p53) (UniProt P02340 72-390, isotope-labeled)
T1 construct: Control of the coimmunoprecipitation
Experiment: coimmunoprecipitation of isotope-labeled recombinant proteins, SDS-PAGE
Excerpt: In the second test, coding sequences of pAS2-1-CCR2b and pAS2-1-p53 were amplified by PCR using a T7 promoter, a 5′ primer encoding myc epitope: 5′[…] 3′ (SEQ ID NO:44) and a 3′ primer originating in p AS2-1: 5′[…]3′ (SEQ ID NO:45) to express an epitope-tagged protein. Similarly, pACT2-FROUNT was amplified by PCR using a T7 promoter, a 5′ primer encoding HA epitope: 5′[…]3′ (SEQ ID NO:46) and a 3′ primer originating in p ACT2: 3′[…]5′ (SEQ ID NO:47). Then, isotope-labeled recombinant proteins were produced in accordance with user's manual of […] Co-IP Kit (CLONTECH Laboratories, Inc.). By the coimmunoprecipitation method using these recombinant proteins, the specific binding ability between CCR2 and FROUNT was confirmed again (FIG. 2). […] Namely, coprecipitation occurred by using the HA- or Myc-specific antibody in the coexistence of myc-CCR2 and HA-FNT, the coprecipitation disappeared by adding an antigen peptide and no coprecipitation occurred in the case of myc-p53, thereby indicating specific binding ability.

T1 sequence (P02340 72-390): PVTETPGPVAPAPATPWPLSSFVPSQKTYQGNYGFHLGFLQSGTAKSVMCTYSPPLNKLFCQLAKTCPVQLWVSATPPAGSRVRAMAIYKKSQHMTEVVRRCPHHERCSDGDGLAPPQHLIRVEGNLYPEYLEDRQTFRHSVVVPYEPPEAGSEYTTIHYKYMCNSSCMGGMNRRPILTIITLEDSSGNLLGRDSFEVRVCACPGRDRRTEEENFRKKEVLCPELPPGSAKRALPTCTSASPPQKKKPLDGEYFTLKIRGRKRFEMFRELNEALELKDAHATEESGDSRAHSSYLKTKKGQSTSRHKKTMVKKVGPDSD

B1: HA-FNT (isotope-labeled HA-fused recombinant FROUNT protein, clone 19 part, made in vitro from pACT2-FROUNT) (other)
chain: LVSDRFLRDYCERGCFSDLDLIDNLGPAMMLSDRLTFLGKYREFHRMYGEKRFADAASLLLSLMTSRIAPRSFWMTLLTDALPLLEQKQVIFSAEQTYELMRCLEDLTSRRPVHGESDTEQLQDDDIETTKVEMLRLSLARNLARAIIREGSLEGS
modifications: isotope-labeled
notes: Co-IP Kit by PCR from pACT2-FROUNT; also called HA-tagged recombinant FROUNT protein; not shown: vector-encoded residues m
- binding result: no binding
